Columns and labels:
[1] = target: C. elegans MAD-2 (MDF-2) (C. elegans); test: SEC-MALS; single purified proteins on Superdex 200 10/300 GL; PCH-2 and TRIP13 with and without added nucleotides
[2] = substrate: Nc1ncnc2c1ncn2[C@@H]1O[C@H](COP(=O)(O)OP(=O)(O)OP(=O)(O)O)[C@@H](O)[C@H]1O; test: enzyme-coupled ATPase assay (pyruvate kinase / lactate dehydrogenase, NADH); type: biochemical, Caenorhabditis elegans; conditions: basal, pH 8.5, 27 °C, 10 mM MgCl2, 200 mM NaCl, kcat per hexamer
[3] = target: the molecule itself; test: SEC-MALS; single purified proteins on Superdex 200 10/300 GL; PCH-2 and TRIP13 with and without added nucleotides
[4] = target: the molecule itself; test: SEC; PCH-2 pore loop mutants compared with wild type on a size-exclusion column
[5] = substrate: Nc1ncnc2c1ncn2[C@@H]1O[C@H](COP(=O)(O)OP(=O)(O)OP(=O)(O)O)[C@@H](O)[C@H]1O; test: enzyme-coupled ATPase assay (pyruvate kinase / lactate dehydrogenase, NADH); type: biochemical, Caenorhabditis elegans; conditions: basal, pH 8.5, 27 °C, 10 mM MgCl2, 200 mM NaCl, kcat per hexamer; remark: listed apart in the source
Source text: enzyme-coupled ATPase assay (pyruvate kinase / lactate dehydrogenase, NADH) on PCH-2 | the kcat of PCH-2^W221A around threefold higher than that of the wild-type enzyme

stoichiometry N [1] | Molecule | Km [2] | kcat [2] | stoichiometry N [3] | stoichiometry N [4] | Km [5] | kcat [5]
2 | C. elegans MAD-2 (MDF-2) (natural protein) |  |  |  |  |  | 
 | Caenorhabditis elegans PCH-2 (enzyme, C. elegans, UniProt Q09535 1-424, looked up, PCH-2 (TRIP13 ortholog), C. elegans, full length, 424 residues; Selenomethionine-derivatised protein was used for phasing only; two subunits of the hexamer carry ADP in the crystal; also called C. elegans TRIP13 ortholog; wild-type PCH-2; source: E. coli Rosetta 2 (DE3) pLysS, purified (Ni-NTA, Hitrap Q ion exchange, Superdex 200 SEC); not shown: His6, N-terminal, cleaved) MHEPMKTLKNIHAEIRICQKFPKSTVQKRFSEFEELIKAASKNARNWKPISSVELFQGDSSLNELFEKLVIGTCELRDGELFENVNDLTINPSNIHVYKLHKDGPLSQNIGDDDGDESIIGSQLWQLPCVEFDSIWENLIYDSNLKNEVMSYVAALARLSEKHVNTKIINVNRLILLTGPPGTGKTSLCKGLAQHLSIRMNDKYSKSVMLEINSHSLFSKWFSESGKLVQKMFDQIDELAEDEKCMVFVLIDEVESLGMCRESSSSRSEPSDAIRAVNALLTQIDRIRRRDNVLILCTSNLESTLDKALVDRADIVKNVGQPSDFARYSMLKSSIMELARIGVVIDNEVHTDYWPQDICDTKAPRNEFTEILFKIAQEARGLSGRAISMLPTLVYSKSPEETITLPNCMNLFLEAVKERLSRNN | 9.5 ± 1.3 µM | 56.0 +/- 1.5 ATP min^-1 | 6 |  |  | 
 | C. elegans PCH-2^F222A (enzyme, UniProt Q09535 1-424, looked up, PCH-2, C. elegans, full length, pore loop mutation F222A; also called pore loop mutant F222A; source: E. coli Rosetta 2 (DE3) pLysS, purified (Ni-NTA, Hitrap Q ion exchange, Superdex 200 SEC); not shown: His6, N-terminal, cleaved) MHEPMKTLKNIHAEIRICQKFPKSTVQKRFSEFEELIKAASKNARNWKPISSVELFQGDSSLNELFEKLVIGTCELRDGELFENVNDLTINPSNIHVYKLHKDGPLSQNIGDDDGDESIIGSQLWQLPCVEFDSIWENLIYDSNLKNEVMSYVAALARLSEKHVNTKIINVNRLILLTGPPGTGKTSLCKGLAQHLSIRMNDKYSKSVMLEINSHSLFSKWASESGKLVQKMFDQIDELAEDEKCMVFVLIDEVESLGMCRESSSSRSEPSDAIRAVNALLTQIDRIRRRDNVLILCTSNLESTLDKALVDRADIVKNVGQPSDFARYSMLKSSIMELARIGVVIDNEVHTDYWPQDICDTKAPRNEFTEILFKIAQEARGLSGRAISMLPTLVYSKSPEETITLPNCMNLFLEAVKERLSRNN | 19.3 ± 0.8 µM | 11.7 +/- 0.1 ATP min^-1 |  | 6 |  | 
 | C. elegans PCH-2 'pore loop AG' mutant (enzyme, UniProt Q09535 1-424, looked up, also called PCH-2^AG; source: E. coli Rosetta 2 (DE3) pLysS, purified (Ni-NTA, Hitrap Q ion exchange, Superdex 200 SEC); not shown: His6, N-terminal, cleaved) MHEPMKTLKNIHAEIRICQKFPKSTVQKRFSEFEELIKAASKNARNWKPISSVELFQGDSSLNELFEKLVIGTCELRDGELFENVNDLTINPSNIHVYKLHKDGPLSQNIGDDDGDESIIGSQLWQLPCVEFDSIWENLIYDSNLKNEVMSYVAALARLSEKHVNTKIINVNRLILLTGPPGTGKTSLCKGLAQHLSIRMNDKYSKSVMLEINSHSLAGAAGAAAGALVQKMFDQIDELAEDEKCMVFVLIDEVESLGMCRESSSSRSEPSDAIRAVNALLTQIDRIRRRDNVLILCTSNLESTLDKALVDRADIVKNVGQPSDFARYSMLKSSIMELARIGVVIDNEVHTDYWPQDICDTKAPRNEFTEILFKIAQEARGLSGRAISMLPTLVYSKSPEETITLPNCMNLFLEAVKERLSRNN | 20.2 ± 1.6 µM | 85.4 +/- 1.2 ATP min^-1 |  | 6 |  | 
 | C. elegans PCH-2^W221A (enzyme, UniProt Q09535 1-424, looked up, PCH-2, C. elegans, full length, pore loop mutation W221A; also called pore loop mutant W221A; source: E. coli Rosetta 2 (DE3) pLysS, purified (Ni-NTA, Hitrap Q ion exchange, Superdex 200 SEC); not shown: His6, N-terminal, cleaved) MHEPMKTLKNIHAEIRICQKFPKSTVQKRFSEFEELIKAASKNARNWKPISSVELFQGDSSLNELFEKLVIGTCELRDGELFENVNDLTINPSNIHVYKLHKDGPLSQNIGDDDGDESIIGSQLWQLPCVEFDSIWENLIYDSNLKNEVMSYVAALARLSEKHVNTKIINVNRLILLTGPPGTGKTSLCKGLAQHLSIRMNDKYSKSVMLEINSHSLFSKAFSESGKLVQKMFDQIDELAEDEKCMVFVLIDEVESLGMCRESSSSRSEPSDAIRAVNALLTQIDRIRRRDNVLILCTSNLESTLDKALVDRADIVKNVGQPSDFARYSMLKSSIMELARIGVVIDNEVHTDYWPQDICDTKAPRNEFTEILFKIAQEARGLSGRAISMLPTLVYSKSPEETITLPNCMNLFLEAVKERLSRNN |  |  |  | 6 | 28.3 ± 1.9 µM | 168.7 +/- 2.3 ATP min^-1

Source: paper PMC4439613, “TRIP13 is a protein-remodeling AAA+ ATPase that catalyzes MAD2 conformation switching” (eLife, 2015)
